Laboratory results taken from US20090170141A1 (University of Texas, published 2009).

T1: recombinant wild-type pro-ghrelin-His8 (mouse, UniProt Q9EQX0 24-117)
T1 sequence: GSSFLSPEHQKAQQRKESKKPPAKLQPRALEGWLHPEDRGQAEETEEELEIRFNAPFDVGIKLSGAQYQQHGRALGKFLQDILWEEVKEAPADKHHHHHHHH

T2: recombinant wild-type pro-ghrelin-His8, Q9EQX0
T2 chain: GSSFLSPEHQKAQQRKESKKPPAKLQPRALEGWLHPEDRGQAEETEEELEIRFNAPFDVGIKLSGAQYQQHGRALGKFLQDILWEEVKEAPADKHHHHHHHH


Experiments:
[1] = biological target: T1, recombinant wild-type pro-ghrelin-His8; test: cell-based or functional assay
[2] = biological target: T2, recombinant wild-type pro-ghrelin-His8, …

Molecule	acylating activity of GOAT in Sf9 membranes against that in INS-1 cell membranes [1]	amount of [3H]octanoyl pro-ghrelin formed, in vitro assay with Sf9 membranes, against S3A mutant pro-ghrelin as substrate [2]	3H-radioactivity covalently linked to pro-ghrelin, in vitro assay with [3H]octanoyl CoA and INS-1 cell membranes, against mock-transfected membranes [1]
GOAT expressed in Sf9 insect cells from pFastBac HT-A (His10-tag) (from UniProt P0C7A3 1-435) (enzyme)	5 fold		
mouse ghrelin O-acyltransferase (GOAT) (enzyme) MDWLQLFFLHPLSFYQGAAFPFALLFNYLCILDTFSTRARYLFLLAGGGVLAFAAMGPYSLLIFIPALCAVALVSFLSPQEVHRLTFFFQMGWQTLCHLGLHYTEYYLGEPPPVRFYITLSSLMLLTQRVTSLSLDICEGKVEAPRRGIRSKSSFSEHLWDALPHFSYLLFFPALLGGSLCSFRRFQACVQRSSSLYPSISFRALTWRGLQILGLECLKVALRSAVSAGAGLDDCQRLECIYLMWSTAWLFKLTYYSHWILDDSLLHAAGFGAEAGQGPGEEGYVPDVDIWTLETTHRISLFARQWNRSTALWLRRLVFRKSRRWPLLQTFAFSAWWHGLHPGQVFGFLCWSVMVKADYLIHTFANVCIRSWPLRLLYRALTWAHTQLIIAYIMLAVEGRSLSSLCQLCCSYNSLFPVMYGLLLFLLAERKDKRN		more than 5-fold higher than when the S3A mutant pro-ghrelin was used as the substrate	5 fold
